Values belong to the binder of their own block, whether it stands above or below them.
Columns and labels:
[1] = biological target: T1, IL-4Rα (target of the affinity engineering of Ab10; form not stated) (UniProt P24394 26-232, limits assumed); assay: affinity during CDR mutagenesis of Ab10 (engineered as a Fab); method and antigen form not stated; order of magnitude only
T1 sequence (looked up): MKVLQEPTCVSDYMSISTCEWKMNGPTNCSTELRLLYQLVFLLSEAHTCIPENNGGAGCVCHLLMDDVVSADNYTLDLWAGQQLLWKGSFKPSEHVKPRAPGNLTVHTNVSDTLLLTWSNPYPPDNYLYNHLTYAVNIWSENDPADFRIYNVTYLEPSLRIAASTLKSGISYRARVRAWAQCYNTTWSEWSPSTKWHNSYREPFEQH

[2] = biological target: T2, human FcγRI (CD64) extracellular domain (human, UniProt P12314 16-292); assay: SPR (Biacore), antibody captured on protein A, FcγR ECD as analyte, 25 °C
T2 construct: extracellular domain
Experimental: Unreacted sites were blocked with a 7 minute injection of ethanolamine at 10 μL/minute. Injections of 2×10 μL of glycine, pH 1.5, was used to remove any noncovalently associated protein. Running buffer was 1×HBS-EP+(TEKNOVA, P/N H8022). The FcγR extracellular domains (ECDs)-FcγRI (CD64), FcγRIIA_131R, and FcγRIIA_131H (CD32a), FcγRIIIA_158V, FcγRIIIA_158F (CD16a), and FcγRIIb (CD32b) were produced from stable CHO cell expression and purified using IgG Sepharose and size exclusion chromatography. For FcγRI binding, antibodies were diluted to […] in running buffer, and approximately 150 RU of each antibody was captured in FCs 2 through 4 (RU captured). FC1 was the reference FC, therefore no antibody was captured in FC1. […] Duplicate injections of each concentration were injected over all FCs at 40 μL/minute for 120 seconds followed by a 1200 second dissociation phase. Regeneration was performed by injecting 15 μL of 10 mM glycine, pH 1.5, at 30 μL/minute over all FCs. […] The affinity (KD) was calculated using either steady state equilibrium analysis with the Scrubber 2 Biacore Evaluation Software or a “1:1 (Langmuir) binding” model in BIA Evaluation. […] The affinity (KD) was calculated using the steady state equilibrium analysis with the Scrubber 2 Biacore Evaluation Software. […]

[3] = biological target: T3, human FcγRIIA_131H (CD32a) extracellular domain (human, UniProt P12318 34-217); assay: SPR (Biacore), antibody captured on protein A, FcγR ECD as analyte, steady state, 25 °C
T3 construct: extracellular domain
T3 sequence (looked up): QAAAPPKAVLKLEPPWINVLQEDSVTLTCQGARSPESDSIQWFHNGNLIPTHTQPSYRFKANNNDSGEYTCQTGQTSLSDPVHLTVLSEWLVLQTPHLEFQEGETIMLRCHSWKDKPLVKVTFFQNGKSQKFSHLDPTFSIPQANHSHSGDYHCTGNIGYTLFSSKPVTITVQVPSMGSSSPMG
Experimental: (§1) Unreacted sites were blocked with a 7 minute injection of ethanolamine at 10 μL/minute. Injections of 2×10 μL of glycine, pH 1.5, was used to remove any noncovalently associated protein. Running buffer was 1×HBS-EP+(TEKNOVA, P/N H8022). The FcγR extracellular domains (ECDs)-FcγRI (CD64), FcγRIIA_131R, and FcγRIIA_131H (CD32a), FcγRIIIA_158V, FcγRIIIA_158F (CD16a), and FcγRIIb (CD32b) were produced from stable CHO cell expression and purified using IgG Sepharose and size exclusion chromatography. For FcγRI binding, antibodies were diluted to […] in running buffer, and approximately 150 RU of each antibody was captured in FCs 2 through 4 (RU captured). FC1 was the reference FC, therefore no antibody was captured in FC1. […] Duplicate injections of each concentration were injected over all FCs at 40 μL/minute for 120 seconds followed by a 1200 second dissociation phase. Regeneration was performed by injecting 15 μL of 10 mM glycine, pH 1.5, at 30 μL/minute over all FCs. Reference-subtracted data was collected as FC2 FC1, FC3-FC1, and FC4-FC1 and the measurements were obtained at 25° C. The affinity (KD) was calculated using either steady state equilibrium analysis with the Scrubber 2 Biacore Evaluation Software or a “1:1 (Langmuir) binding” model in BIA Evaluation. For FcγRIIa, FcγRIIb, and FcγRIIIa binding, antibodies were diluted to 5 μg/mL in running buffer, and approximately 500 RU of each antibody was captured in FCs 2 through 4). FC1 was the reference FC. […] Duplicate injections of each concentration were injected over all FCs at 40 μL/minute for 60 seconds followed by a 120 second dissociation phase. Regeneration was performed by injecting 15 μL of 10 mM glycine, pH 1.5, at 30 μL/minute over all FCs. Reference-subtracted data was collected as FC2-FC1, FC3-FC1, and FC4-FC1, and the measurements were obtained at 25° C. The affinity (KD) was calculated using the steady state equilibrium analysis with the Scrubber 2 Biacore Evaluation Software. Each receptor was assayed at least two times.

[4] = biological target: T4, human FcγRIIb (CD32b) extracellular domain (human, UniProt P31994 43-217); assay: as above
T4 construct: extracellular domain
T4 sequence (looked up): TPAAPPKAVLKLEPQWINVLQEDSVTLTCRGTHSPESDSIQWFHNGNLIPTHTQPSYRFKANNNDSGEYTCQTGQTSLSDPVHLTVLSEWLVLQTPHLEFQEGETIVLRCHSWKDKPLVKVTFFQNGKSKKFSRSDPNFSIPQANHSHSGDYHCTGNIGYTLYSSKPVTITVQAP
Experimental: as §1

[5] = biological target: T5, human IL-4Rα on cells (human PBMC B cells and CD4+ T cells, Daudi cells, HEK-Blue IL-4/IL-13 cells, myeloid … (human, UniProt P24394 26-825)); assay: flow cytometry on human PBMCs, CD20 B cells, Alexa Fluor 647 labelled antibody, percent IL-4Rα positive cells
T5 sequence: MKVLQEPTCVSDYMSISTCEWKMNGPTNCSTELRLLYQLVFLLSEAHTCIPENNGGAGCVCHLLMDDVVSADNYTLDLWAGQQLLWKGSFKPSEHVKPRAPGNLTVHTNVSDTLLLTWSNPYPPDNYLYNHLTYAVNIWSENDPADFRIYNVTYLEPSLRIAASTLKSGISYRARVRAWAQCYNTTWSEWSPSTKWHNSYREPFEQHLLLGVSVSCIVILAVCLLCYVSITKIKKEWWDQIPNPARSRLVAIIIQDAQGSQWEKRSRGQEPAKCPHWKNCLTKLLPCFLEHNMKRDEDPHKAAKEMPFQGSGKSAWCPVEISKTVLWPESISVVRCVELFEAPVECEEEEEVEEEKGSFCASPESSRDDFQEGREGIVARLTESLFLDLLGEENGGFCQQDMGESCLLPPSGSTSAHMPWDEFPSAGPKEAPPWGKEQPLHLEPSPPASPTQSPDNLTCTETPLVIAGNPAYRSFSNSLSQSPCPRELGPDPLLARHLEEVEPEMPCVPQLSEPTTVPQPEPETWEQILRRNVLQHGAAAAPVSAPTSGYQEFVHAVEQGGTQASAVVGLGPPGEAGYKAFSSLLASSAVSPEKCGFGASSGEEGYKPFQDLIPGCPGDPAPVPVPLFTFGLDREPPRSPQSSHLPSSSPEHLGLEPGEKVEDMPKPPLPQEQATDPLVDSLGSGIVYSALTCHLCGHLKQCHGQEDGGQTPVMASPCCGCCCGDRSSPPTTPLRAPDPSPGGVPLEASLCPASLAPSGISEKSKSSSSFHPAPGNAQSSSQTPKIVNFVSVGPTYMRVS
Experimental: (§2) Example 3b. Binding to B cells and T cells: Binding of the exemplified anti-human IL-4Rα antibodies to B cells and T cells was tested in a Fluorescence Activated Cell Sorting (FACS) assay. […] Freshly isolated cells PBMCs were resuspended at 2×10⁶ cells/mL and allowed to rest for 15 minutes at room temperature, then plated at 100 μL/well into a round bottom 96-well plate (COSTAR®) and washed with FACS buffer (PBS containing 2% fetal bovine serum from Corning®). Exemplified anti-human IL-4Rα antibodies and the respective control IgG antibodies conjugated to Alexa Fluor® 647 according to manufacturer's protocol (Thermo Fisher Scientific) were added to the wells at 66.67 nM and diluted 4-fold in duplicate. Equivalent volume of 2× antibody cocktail containing: Human TruStain FcX™. FITC anti-human CD3 Antibody, Alexa Fluor® 700 anti-human CD4 Antibody (all from Biolegend®) and CD20 Monoclonal Antibody (2H7), PerCP-Cyanine5.5 (Thermo Fisher Scientific) was then added to the wells. Cells were incubated at 4° C. for 30 minutes, washed twice with FACS buffer and resuspended in a final volume of 100 μL FACS buffer. Viability dye, Sytox™ blue (Thermo Fisher Scientific), was added and the samples were analyzed via a flow cytometer (LSRFortessa™ X-20; BD BIOSCIENCES). Data analysis was performed using FlowJo software and statistical analysis was performed using GraphPad Prism 9. […]

[6] = biological target: T5, human IL-4Rα on cells (human PBMC B …); assay: flow cytometry on human PBMCs, CD4-positive T cells, Alexa Fluor 647 labelled antibody, percent IL-4Rα positive cells
Experimental: as §2

[7] = biological target: T5, human IL-4Rα on cells (human PBMC B …); assay: flow cytometry on human PBMCs, B cells, Alexa Fluor 647 labelled antibody
Experimental: as §2

[8] = biological target: T5, human IL-4Rα on cells (human PBMC B …); assay: cell-based or functional assay
[9] = biological target: T5, human IL-4Rα on cells (human PBMC B …); assay: cell-based or functional assay; remark: listed apart in the source

T2 sequence (P12314 16-292): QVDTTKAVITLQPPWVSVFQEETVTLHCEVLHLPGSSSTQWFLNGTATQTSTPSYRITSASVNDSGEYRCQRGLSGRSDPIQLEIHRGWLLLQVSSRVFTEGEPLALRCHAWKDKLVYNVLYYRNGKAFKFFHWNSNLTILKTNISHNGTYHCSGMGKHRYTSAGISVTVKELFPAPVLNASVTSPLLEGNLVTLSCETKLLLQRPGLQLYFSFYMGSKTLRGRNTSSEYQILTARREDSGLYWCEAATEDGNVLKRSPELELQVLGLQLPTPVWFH

B1: Ab10 variant with the LCDR3 substitutions H91W, N92S (antibody, V domains shown)
VH: QVQLVESGGGLVQPGGSLRLSCAASGFTFSISSMNWVRQAPGKGLEWVSYISRATGAIYYADSVKGRFTISRNNAKNSLYLQMNSLRDEDTAVYYCAREPVFDYWGQGTLVTVSS
VL: DIQMTQSPSAMSASVGDRVTITCRASQGISNYLAWFQQKPGKVPTRLIYAASSLQSGVPSRFSGSGSGTEFTLTISSLQPEDFATYYCLQWSSYPRTFGQGTKVEIK
notes: also called the resulting antibody
Kd [1]: ~0.01 nM

Kd [2]: 0.0428 nM
Kd [3]: 1240 nM
Kd [4]: 3020 nM
EC50 [5]: 0.14 nM
EC50 [6]: 28.7 nM
EC50 [7]: 0.27 nM
IL-4 IC50 (nM): inhibition of IL-4 induced SEAP activity in HEK-Blue IL-4R and IL-13R expressing cells [8]: 0.07 nM
IL-13 IC50 (nM): inhibition of IL-13 induced SEAP activity in HEK-Blue IL-4R and IL-13R expressing cells [8]: 0.51 nM
Inhibition of IL-4 induced B cell proliferation, IC50 [9]: 0.95 nM
B2: anti-human IL-4Rα antibody Ab7 (antibody, human IgG1, kappa)
heavy: not shown
light: DIQMTQSPSAMSASVGDRVTITCRASQDISNYLAWFQQKPGKVPTRLIYAASSLQSGVPSRFSGSGSGTEFTLTISSLQPEDFATYYCLQWSSYPRTFGQGTKVEIKRTVAAPSVFIFPPSDEQLKSGTASVVCLLNNFYPREAKVQWKVDNALQSGNSQESVTEQDSKDSTYSLSSTLTLSKADYEKHKVYACEVTHQGLSSPVTKSFNRGEC
notes: Human IgG1 backbone

Source: patent US20240100176A1 (Eli Lilly, published 2024)
